Assay results published in patent publication US20260167959A1, “APTAZYME-BASED REGULATABLE GENE EXPRESSION SYSTEMS” (REJUVENATE BIO INC, priority 2022, published 2026).
Substitutions are numbered along the chain they refer to.

B1: RA260 (nucleic acid)
DNA: GCGCGTCCTGGATTCGCGGAAACGCCGGAATACCAGCATCGTCTTGATGCCCTTGGAAGTCCGGCGTACATCCAGCTGACGAGTCCCAAATAGGACGAAACGCGC
modifications: expressed or natural sequence
B2: RA255 (nucleic acid)
DNA: GCGCGTCCTGGATTCGCGGAAACGCGTACATCCAGCTGACGAGTCCCAAATAGGACGAAACCGGAATACCAGCATCGTCTTGATGCCCTTGGAAGTCCGGCGCGC
modifications: expressed or natural sequence
B3: RA273 (nucleic acid)
DNA: GCGCGTCCTGGATTCGCGGGAATACCAGCATCGTCTTGATGCCCTTGGAAGTCCGAAACGCGTACATCCAGCTGACGAGTCCCAAATAGGACGAAACGCGC
modifications: expressed or natural sequence
B4: RA252 (nucleic acid)
DNA: GCGCGTCCTGGATTCGCGGAAGTGATACCAGCATCGTCTTGATGCCCTTGGCAGCACTAACGCGTACATCCAGCTGACGAGTCCCAAATAGGACGAAACGCGC
modifications: expressed or natural sequence
B5: RA272 (nucleic acid)
DNA: GCGCGTCCTGGATTCGCGGAAACGCGTACATCCAGCTGACGAGTCCCAAATAGGACGAAACGCGCAGAATACCAGCATCGTCTTGATGCCCTTGGAAGTCT
modifications: expressed or natural sequence
B6: RA263 (nucleic acid)
DNA: GCGCGTCCTGGATTCGCGGAAACGCGTACATCCAGCTGACGAGTCCCAAAAGTGATACCAGCATCGTCTTGATGCCCTTGGCAGCACTTAGGACGAAACGCGC
modifications: expressed or natural sequence
B7: RA274 (nucleic acid)
DNA: B6 DNA with A51G, G52A, T53G, G54A, C82A, C85T, A86C, C87T, T88C
modifications: expressed or natural sequence
B8: RA269 (nucleic acid)
DNA: GCGCGTCCTGGATTCGCGGAAACGCGAGAATACCAGCATCGTCTTGATGCCCTTGGAAGTCTTACATCCAGCTGACGAGTCCCAAATAGGACGAAACGCGC
modifications: expressed or natural sequence
B9: RA266 (nucleic acid)
DNA: GCGCGTCCTGGATTCGCGGAAACGCGCGAGAATACCAGCATCGTCTTGATGCCCTTGGAAGTCTCGTACATCCAGCTGACGAGTCCCAAATAGGACGAAACGCGC
modifications: expressed or natural sequence
B10: RA259 (nucleic acid)
DNA: GCGCGTCCTGGATTCGCGGAAACGCGTACATCCAGCTGACGAGTCCCAAATAGGACGAAAAGTGATACCAGCATCGTCTTGATGCCCTTGGCAGCACTCGCGC
modifications: expressed or natural sequence
B11: RA254 (nucleic acid)
DNA: GCGCGTCCTGGATTCGCGGAAACGCGTACATCCAGCAGAATACCAGCATCGTCTTGATGCCCTTGGAAGTCTTGACGAGTCCCAAATAGGACGAAACGCGC
modifications: expressed or natural sequence
B12: RA258 (nucleic acid)
DNA: GCGCGTCCTGGATTAGTGATACCAGCATCGTCTTGATGCCCTTGGCAGCACTCGCGGAAACGCGTACATCCAGCTGACGAGTCCCAAATAGGACGAAACGCGC
modifications: expressed or natural sequence
B13: RA264 (nucleic acid)
DNA: GCGCGTCCTGGATTCGCGGAAACGCGTACATCCAGCTAGAATACCAGCATCGTCTTGATGCCCTTGGAAGTCTGACGAGTCCCAAATAGGACGAAACGCGC
modifications: expressed or natural sequence
B14: RA262 (nucleic acid)
DNA: GCTGTCACCGGAATACCAGCATCGTCTTGATGCCCTTGGAAGTCCGGTCTGATGAGTCCCATAAGGACGAAACAGC
modifications: expressed or natural sequence
B15: RA026 (nucleic acid)
DNA: GCGCGTCCTGGATTCGCGGAAACGCGTACATCCAGCTGACGAGTCCGAGAATACCAGCATCGTCTTGATGCCCTTGGAAGTCTCGCCAAATAGGACGAAACGCGC
modifications: expressed or natural sequence
B16: RA265 (nucleic acid)
DNA: GCGCGTCCTGGATTCGCGGAAACGCGTACATCCAGCTGACGAGTCCCAAAGGAATACCAGCATCGTCTTGATGCCCTTGGAAGTCCTAGGACGAAACGCGC
modifications: expressed or natural sequence
B17: RA268 (nucleic acid)
DNA: GCGCGTCCTGGATTCGCGGAAACGCGTACATCCAGCTGACGAGTCCCAAATAGGACGAAACGCGGAGAATACCAGCATCGTCTTGATGCCCTTGGAAGTCTCC
modifications: expressed or natural sequence
B18: RA257 (nucleic acid)
DNA: GCGCGTCCTGGATTCGCGGAAACGCCGGAATACCAGCATCGTCTTGATGCCCTTGGAAGTCCGGTACATCCAGCTGACGAGTCCCAAATAGGACGAAACGCGC
modifications: expressed or natural sequence
B19: RA261 (nucleic acid)
DNA: GCGCGTCCTGGATTCGCGGAAACGCGTACATCCAGCTGACGAGTCCCAACGAGAATACCAGCATCGTCTTGATGCCCTTGGAAGTCTCGATAGGACGAAACGCGC
modifications: expressed or natural sequence
B20: RA271 (nucleic acid)
DNA: B19 DNA with G51C, A52G, T87C, C88G
modifications: expressed or natural sequence
B21: RA256 (nucleic acid)
DNA: GCGCGTCCTGGATTCGCGGAAACGCGTACATGAGAATACCAGCATCGTCTTGATGCCCTTGGAAGTCTCCCAGCTGACGAGTCCCAAATAGGACGAAACGCGC
modifications: expressed or natural sequence
B22: RA253 (nucleic acid)
DNA: GCGCGTCCTGGATTCGCGGAAACGCGTACATGGAATACCAGCATCGTCTTGATGCCCTTGGAAGTCCCCAGCTGACGAGTCCCAAATAGGACGAAACGCGC
modifications: expressed or natural sequence
B23: RA025 (nucleic acid)
DNA: GCGCGTCCCGAGAATACCAGCATCGTCTTGATGCCCTTGGAAGTCTCGTGGATTCGCGGAAACGCGTACATCCAGCTGACGAGTCCCAAATAGGACGAAACGCGC
modifications: expressed or natural sequence
B24: RA251 (nucleic acid)
DNA: GCGCGTCCTGGACCGGAATACCAGCATCGTCTTGATGCCCTTGGAAGTCCGGTTCGCGGAAACGCGTACATCCAGCTGACGAGTCCCAAATAGGACGAAACGCGC
modifications: expressed or natural sequence
B25: RA270 (nucleic acid)
DNA: GCGCGTCCTGGATTCGCGGAAACGCGTACATCCAGCTGACGAGTCCCAAATAGGACGAAGAATACCAGCATCGTCTTGATGCCCTTGGAAGTCTAACGCGC
modifications: expressed or natural sequence
B26: RA267 (nucleic acid)
DNA: GCGCGTCCTGGATTCGCGGAAACGCGTACATCCAGCTGACGAGTGGAATACCAGCATCGTCTTGATGCCCTTGGAAGTCCCCCAAATAGGACGAAACGCGC
modifications: expressed or natural sequence

Tested on: Renilla luciferase RNA
Experiment: Barcoded aptazyme variant library screen: un-cleaved Renilla luciferase RNA by barcode read counts, HEK293-T cells
Assay type: cell-based
Details: un-cleaved Renilla luciferase RNA, HEK293-T cells cultured with 1 mM theophylline (ON) over without theophylline (OFF); barcode read counts, triplicate
Source text: Based on the findings from Example 1, an aptazyme variant library was generated from the T3H48 ribozyme with one of seven variant theophylline aptamers inserted sequentially after each nucleotide of the DNA sequence encoding the T3H48 ribozyme sequence. […] The seven variant theophylline aptamers vary in their communication channels, which are the ribonucleotides of the aptamer that attach to the ribozyme sequence (see, Table 2).
The library was barcoded with unique sequences of nine nucleotides flanked by forward and reverse primer amplification sequences.
The aptazyme library was then PCR amplified and cloned into the psiCHECK™-2 dual luciferase vector in the 3′ UTR of the Renilla luciferase gene. […] The next day, the cells were isolated followed by DNA and RNA extraction using standard methods. The purified RNA was then converted to cDNA and the barcoded portion of the aptazyme library was PCR amplified. Similarly, the DNA was PCR amplified and all the samples were sequenced. All experimental conditions (with theophylline and without theophylline) were performed in triplicate. The read count for each barcode was determined with a custom build code and the data was normalized to identify the un-cleaved fractions of the Renilla luciferase RNA from cells that were cultured in the presence or absence of theophylline for each aptazyme, which was used to obtain the fold-change between ON- and OFF-states (FIG. 2).

| Molecule | Fold change in RNA expression between the ON state and the OFF state [fold] |
| --- | --- |
| RA215 (DNA GCTGTCACCGGATGTGCTTTCCGGTACGTGAGGTCCGTGAGGACGAAACAGC; expressed or natural sequence) | 1.2 |
| B1 | 1.1 |
| B2 | 1.1 |
| B3 | 1.0 |
| B4 | 1.1 |
| B5 | 1.0 |
| B6 | 1.1 |
| B7 | 1.0 |
| B8 | 1.0 |
| B9 | 1.0 |
| B10 | 1.1 |
| B11 | 1.1 |
| B12 | 1.1 |
| B13 | 1.0 |
| B14 | 1.1 |
| B15 | 2.4 |
| B16 | 1.0 |
| B17 | 1.0 |
| B18 | 1.1 |
| B19 | 1.1 |
| B20 | 1.0 |
| B21 | 1.1 |
| B22 | 1.1 |
| B23 | 2.5 |
| B24 | 1.1 |
| B25 | 1.0 |
| B26 | 1.0 |
